Measured values taken from patent US20240181022A1, “AMURINS LYSINS, AND LYSIN-ANTIMICROBIAL PEPTIDE (AMP) CONSTRUCTS ACTIVE AGAINST GRAM-NEGATIVE BACTERIA” (priority 2021, published 2024).
Converted amounts (≈) assume the structure as drawn. Read-outs that look alike come from different tables or passages of the source.

Assays:
P. apista [1] = assay: MIC by broth microdilution against P. apista; type: cell-based, Pandoraea apista
Experimental: (§1) MIC values were determined using a modification of the standard broth microdilution reference method defined by the Clinical and Laboratory Standards Institute (CLSI), CLSL. 2015. Methods for Dilution Antimicrobial Susceptibility Tests for Bacteria That Grow Aerobically; Approved Standard-10th Edition. Clinical and Laboratory Standards Institute, Wayne, PA. The modification was based on the replacement of Mueller Hinton Broth with either CAA media (with and without NaCl) or CAA supplemented with 2.5% human serum. MIC is the minimum concentration of peptide sufficient to suppress at least 80% of the bacterial growth compared to control.
(§2) Based on these nine most prevalent strains, direct lytic agents, including GN370, AM1, AM2, and AM3, were evaluated against various isolates from each of the 9 strains. MICs and MBECs (Example 3) were determined, and a sputum inhibition test was conducted, as described below in Example 5.
(§3) The MICs for were determined as described below using the broth microdilution method for meropenem, GN370, AM1, AM2, and AM3. The results are shown below in Tables 8-12.

B. gladioli [2] = assay: MIC by broth microdilution against B. gladioli; type: cell-based, Burkholderia gladioli; conditions: B. gladioli isolates
Experimental: as §1, §2, §3

S. maltophilia [3] = assay: Time-kill assay in cystic fibrosis patient sputum, S. maltophilia; type: cell-based, Stenotrophomonas maltophilia
From the text: Sputum from 5 cystic fibrosis patients was pooled. The resulting mixture was not filtered, as it was very dense and not amenable to sterilization by filtration. Sputum is known to be a complex mixture of DNA, carbohydrates, and lipids ([…], 2016). As used herein, the term “sputum” refers to the mucus present in the respiratory tract of an animal, such as a human. Sputum may increase in thickness due to the irritation or infection, including bacterial infection, and in some instances, may be expelled by the animal while coughing. In certain instances, cystic fibrosis may be characterized by the presence of a thick, sticky mucus or sputum present in the lungs of cystic fibrosis patients. The activity of GN370, AM1, AM2, AM3, and meropenem was determined in the sputum using a time-kill assay format as disclosed in Zhang et al., Antimicrobial peptide therapeutics for cystic fibrosis, Antimicrobial Agents Chemother. 2005; 49(7):2921-2927. […] Untreated controls were included in addition to pretreatment plating (t=0) for a baseline CFU determination. Activity was also determined in the absence of sputum for comparison to activity observed in the presence of sputum.

B. multivorans [4] = assay: MIC by broth microdilution against B. multivorans; type: cell-based, Burkholderia multivorans; conditions: B. multivorans isolates
Experimental: as §1, §2, §3

P. apista [5] = type: cell-based, Pandoraea apista; conditions: P. apista (15); 2-hour treatment
Experimental: (§4) The MBEC (after 2-hour treatments) was determined as described in Jones and Wozniak, PsI Produced by Mucoid Pseudomonas aeruginosa Contributes to the Establishment of Biofilms and Immune Evasion, Am. Soc. Microbiol. 2017, 8(3):e00864-17. Meropenem and tobramycin were included as controls and were both poorly active, with MBEC90 values of >256 μg/mL (data not shown).

S. maltophilia [6] = assay: Serial passage resistance development study, S. maltophilia; type: cell-based, Stenotrophomonas maltophilia; conditions: S. maltophilia, day 28, triplicate
B. gladioli [7] = type: cell-based, Burkholderia gladioli; conditions: B. gladioli (15); 2-hour treatment
Experimental: as §4

A. ruhlandii = type: cell-based, Achromobacter ruhlandii; conditions: A. ruhlandii (15); 2-hour treatment
Experimental: as §4

S. maltophilia [8] = system: S. maltophilia
Experimental: (§5) Biofilms are then washed and treated with e.g., a 2-fold dilution series of the lysin in TSBg at e.g., 37° C. for 24 hours. After treatment, wells are washed, air-dried at e.g., 37° C. and stained with e.g., 0.05% crystal violet for 10 minutes.
(§6) The antibiofilm activity of GN370, AM1, AM2, and AM3 was evaluated against various Gram-negative bacteria prevalent in cystic fibrosis patients, including P. aeruginosa, S. maltophilia, and A. xylosoxidans.
(§7) The MBEC (after 2-hour treatments) was determined as described in Jones and Wozniak, PsI Produced by Mucoid Pseudomonas aeruginosa Contributes to the Establishment of Biofilms and Immune Evasion, Am. […] Microbiol.

A. xylosoxidans = A. xylosoxidans (15); 2-hour treatment
Experimental: as §5, §6, §7

B. multivorans [9] = conditions: B. multivorans (15); 2-hour treatment
Experimental: as §5, §6, §7

[10] = P. aeruginosa test organism of the sputum time-kill assay
[11] = Pandoraea apista, N 11 (Table 26)
[12] = MDR P. aeruginosa isolates (n = 13)
[13] = Pseudomonas aeruginosa, AR Bank, N 67
[14] = Pseudomonas aeruginosa, Weill Cornell, N 55
[15] = Pseudomonas aeruginosa, all isolates, N 122
[16] = carbapenem-resistant P. aeruginosa isolates (n = 12)
[17] = mucoid P. aeruginosa isolates (n = 11)
[18] = α-hemolytic P. aeruginosa isolates (n = 13)
[19] = S. maltophilia (26), 2-hour treatment

## C[C@@H](O)[C@H]1C(=O)N2C(C(=O)O)=C(S[C@@H]3CN[C@H](C(=O)N(C)C)C3)[C@H](C)[C@H]12 [meropenem, reference compound]
P. apista [1]; P. apista isolates
  MIC50: > 32 µg/mL
  MIC90: > 32 µg/mL
  MIC Range: > 32 µg/mL
B. gladioli [2]
  MIC50: 1 µg/mL (≈ 2.61 µM)
  MIC90: 2 µg/mL (≈ 5.22 µM)
S. maltophilia [3]
  activity in the presence and absence of sputum: poorly active
S. maltophilia [3]; absence of sputum, 1 hr
  Log10 CFU/mL of sputum: 5.04 Log10 CFU/mL of sputum
S. maltophilia [3]; absence of sputum, 3 hr
  Log10 CFU/mL of sputum: 4.7 Log10 CFU/mL of sputum
S. maltophilia [3]; absence of sputum, 24 hr
  Log10 CFU/mL of sputum: 7.95 Log10 CFU/mL of sputum
S. maltophilia [3]; presence of 10% sputum, 1 hr
  Log10 CFU/mL of sputum: 3.78 Log10 CFU/mL of sputum
S. maltophilia [3]; presence of 10% sputum, 3 hr
  Log10 CFU/mL of sputum: 4.26 Log10 CFU/mL of sputum
S. maltophilia [3]; presence of 10% sputum, 24 hr
  Log10 CFU/mL of sputum: 6.3 Log10 CFU/mL of sputum
P. aeruginosa; P. aeruginosa isolates
  MIC50: 4 µg/mL (≈ 10.4 µM)
  MIC90: 32 µg/mL (≈ 83.4 µM)
P. aeruginosa; [10]
  MIC: (MIC = 0.125)
P. aeruginosa; […], before serial passage
  MIC: 0.5 µg/mL (≈ 1.3 µM)
B. multivorans [4]
  MIC50: 8 µg/mL (≈ 20.9 µM)
  MIC90: 32 µg/mL (≈ 83.4 µM)

B1: GN370: lysin-AMP construct, SEQ ID NO: 149: MIDR, FIRL and NPTH moieties N-terminal to GN202 lysin (protein)
chain: MIDRFIRLNPTHGPRRPRRPGRRAPVRTSQRGIDLIKSFEGLRLSAYQDSVGVWTIGYGTTRGVTRYMTITVEQAERMLSNDIQRFEPELDRLAKVPLNQNQWDALMSFVYNLGAANLASSTLLDLLNKGDYQGAADQFPHWVNAGGKRLDGLVKRRAAERALFLEPLS
modifications: GN370 lysin
P. apista [5]
  MBEC50: 32 µg/mL
  MBEC90: 64 µg/mL
  MBEC Range: 8 to 64 µg/mL
S. maltophilia [6]
  change in MIC over serial passage: no increase in MIC
P. apista [1]; P. apista isolates
  MIC50: > 32 µg/mL
  MIC90: > 32 µg/mL
P. apista [1]; [11]
  MIC50: >64 µg/mL
  MIC90: >64 µg/mL
  MIC Range: >64 µg/mL
B. gladioli [2]
  MIC50: > 32 µg/mL
  MIC90: > 32 µg/mL
B. gladioli [7]
  MBEC50: 256 µg/mL
A. ruhlandii
  MBEC50: 4 µg/mL
  MBEC90: 64 µg/mL
  MBEC Range: 4 to 64 µg/mL
S. maltophilia [3]; 10% CF sputum vs no sputum
  effect of sputum on antibacterial activity: none of GN370, AM1, AM2, and AM3 was inhibited
S. maltophilia [3]; absence of sputum, 1 hr
  Log10 CFU/mL of sputum: 2.3 Log10 CFU/mL of sputum
S. maltophilia [3]; absence of sputum, 3 hr
  Log10 CFU/mL of sputum: 2.3 Log10 CFU/mL of sputum
S. maltophilia [3]; absence of sputum, 24 hr
  Log10 CFU/mL of sputum: 2.3 Log10 CFU/mL of sputum
S. maltophilia [3]; presence of 10% sputum, 1 hr
  Log10 CFU/mL of sputum: 3.48 Log10 CFU/mL of sputum
S. maltophilia [3]; presence of 10% sputum, 3 hr
  Log10 CFU/mL of sputum: 2.3 Log10 CFU/mL of sputum
S. maltophilia [3]; presence of 10% sputum, 24 hr
  Log10 CFU/mL of sputum: 2.3 Log10 CFU/mL of sputum
S. maltophilia [3]; time-kill
  CFU reduction by 3 hours: ~2 log10
  killing by 24 hours: complete killing
P. aeruginosa; [12]
  MIC50: 0.125 µg/mL
  MIC90: 0.5 µg/mL
P. aeruginosa; MDR P. aeruginosa isolates (n = 13), in µg/mL
  MIC Range: 0.0625-0.5
P. aeruginosa; P. aeruginosa ATCC 27853 (head of Table 19)
  MIC: 1 µg/mL
P. aeruginosa; P. aeruginosa PA25
  MIC: PA25 (MIC = 2 μg/mL)
P. aeruginosa; P. aeruginosa clinical and resistant isolates
  MIC90: 2 µg/mL
P. aeruginosa; P. aeruginosa isolates
  MIC50: 0.25 µg/mL
  MIC90: 0.5 µg/mL
P. aeruginosa; P. aeruginosa isolates, in µg/mL
  MIC Range: 0.06-1
P. aeruginosa; [10]
  MIC: (MIC = 0.5)
P. aeruginosa; [13]
  MIC50: 1 µg/mL
  MIC90: 2 µg/mL
  MIC Range: 0.25 to 2 µg/mL
P. aeruginosa; [14]
  MIC50: 1 µg/mL
  MIC90: 2 µg/mL
  MIC Range: 0.25 to 2 µg/mL
P. aeruginosa; [15]
  MIC50: 1 µg/mL
  MIC90: 2 µg/mL
  MIC Range: 0.25 to 2 µg/mL
P. aeruginosa; XDR P. aeruginosa strain AR-769
  MIC: 2 µg/mL
P. aeruginosa; […], before serial passage
  MIC: 1 µg/mL
P. aeruginosa; all tested isolates, Tables 8-12
  activity (MIC) against P. aeruginosa isolates: highly active
P. aeruginosa; [16]
  GN370 MIC50: 0.25 µg/mL
  GN370 MIC90: 0.5 µg/mL
P. aeruginosa; carbapenem-resistant P. aeruginosa isolates (n = 12), in µg/mL
  GN370 MIC Range: 0.0625-1
P. aeruginosa; [17]
  MIC50: 0.25 µg/mL
  MIC90: 1 µg/mL
P. aeruginosa; mucoid P. aeruginosa isolates (n = 11), in µg/mL
  MIC Range: 0.0625-1
P. aeruginosa; [18]
  MIC50: 0.25 µg/mL
  MIC90: 1 µg/mL
P. aeruginosa; α-hemolytic P. aeruginosa isolates (n = 13), in µg/mL
  MIC Range: 0.0625-1
B. multivorans [4]
  MIC50: 16 µg/mL
  MIC90: > 32 µg/mL
S. maltophilia [8]; 2-hour treatments
  antibiofilm activity (MBEC) against S. maltophilia: highly active
S. maltophilia [8]; [19]
  MBEC50: 1 µg/mL
  MBEC90: 2 µg/mL
  MBEC Range: 0.064-4 ^ μg/mL
A. xylosoxidans
  MBEC50: 8 µg/mL
  MBEC90: >256 µg/mL
B. multivorans [9]
  MBEC50: 8 µg/mL
  MBEC90: 64 µg/mL
